Where no end group is shown, it is not given here. [ ]: non-standard residue; d: D form. The star is where a group is joined. aminomethylferrocene = [Fe+2].c1cc[c-](CN*)c1.c1cc[cH-]c1; Ava = NCCCCC(=O)O
Molecular target: cathepsin B (Homo sapiens, UniProt P07858)
Experiment: Determination of cleavage sites by HPLC-MS
Type: biochemical
Design: purchased R&D Systems Inc. (Minneapolis, MN)
Settings: 50 mM MES pH 5.0, 250 mM NaCl, 0.17 μM cathepsin B, 2 h and 3 h
Text: Here, the data is normalized to the value of ip0 derived from the fitting data according to eq 9. This normalization accounts for variations in I′ of the peptide-Fc substrate between each of the electrodes, and the values of ip0 and values of ip0 are listed in Table S3. […] FIG. 8b is a bar graph illustrating the differences in the measured values of 1/τ broken down by channels with H-16 (shown in blue), H-15 (shown in red) and H-3 (shown in green), similar to FIG. 8a. Here the average values of 1/τ were measured to be (8.9±1.1)×10^−4 s^−1, (6.8±1.8)×10^−4 s^−1, and (7.4±0.9)×10^−4 s^−1 for H-16, H-15 and H-3, respectively. These three peptides show similar values of 1/τ because the majority of the amino acid sequences are similar. […] For peptide H-15, all analyte solutions contained 6.5 mM peptide H-15, 50 mM MES buffer (pH 5.0) and 250 mM NaCl. Chromatograms of the peptide in the solution were then analyzed. H-15 appeared at 35.9 min in the chromatogram as verified by mass spectrometry. After incubation with cathepsin B for 2 h the cleaved fragment connected to the Fc moiety appeared at 16.0 min in the chromatogram as verified by mass spectrometry [showing a mass of 626.5 [M+23(Na)] in the mass spectrum]. A final chromatogram of peptide H-15 obtained after incubation with 5.75 ng/μL (0.17 μM) cathepsin B for 3 h confirms the cleavage site. Analyte solution for peptide H-16 was 50 mM MES (pH 5.0) and 250 mM NaCl. The hexapeptide appeared at 33.4 min in the HPLC chart and its structure was verified by mass spectrometry analysis. After treatment of hexapeptide H-16 with cathepsin B in 50 mM MES (pH 5.0) and 250 mM NaCl for 2 h the cleaved fragment appeared at 16.0 min and its structure was verified by MS analysis [showing a mass of 625.043 (M−H2+1) in the mass spectrum]. Cleavage was confirmed by incubation of 6.5 mM peptide H-16 in 50 mM MES (pH 5.0) and 250 mM NaCl incubated with 5.75 ng/μl (0.17 μM) cathepsin B for 3 h.
The cleavage sites of the hexapeptide-Fc substrates were examined using HPLC as described above. Analytical HPLC was performed with a Shimadzu SCL-10A HPLC system fitted with a proto 300 C18 reverse phase semi-prep column (10 μm, 250×10 mm). The flow rate was 1 ml/min with a gradient elution starting from 100% solvent A (water containing 0.1% TFA) to 20% solvent A and 80% solvent B (acetonitrile containing 0.1% TFA) over 50 min. The UV absorbance was monitored at 254 nm. […] The absorbance peak at ˜33.5 min was peptide H-16 and peak at 16.0 min is assigned as [Leu-Ala-Gly-Val-Ala-NH═CH-Fc]^+ (residues 2-6 of SEQ ID NO:3) (mass of 625.288). […]

cleavage site by cathepsin B | cleavage site by cathepsin B (listed as peptide-Fc) | Substance
between Pro-Leu |  | H2N-(CH2)4-CO-Pro-Leu-Ala-Gly-Val-Ala-NH-CH2-Fc ([Ava]PLAGVA-aminomethylferrocene) [Peptide H-16]
between Leu and Ala residues | between Leu and Ala | H2N-(CH2)4-CO-Pro-Leu-Ala-Phe-Val-Ala-NH-CH2-Fc ([Ava]PLAFVA-aminomethylferrocene) [Peptide H-15]
between Gly-Ala and Phe-Gly residues |  | H2N-(CH2)4-CO-Pro-Leu-Arg-Phe-Gly-Ala-NH-CH2-Fc ([Ava]PLRFGA-aminomethylferrocene) [Peptide H-3]

— patent US12618835B2, “Multiplex microelectrode array for detection of proteases as biomarkers” (Kansas State University Research Foundation, priority 2021, dated 2026)
